The test system of one test is GFP:RGA. Nature of the test: Immunoprecipitation of GFP:RGA from pRGA::GFP:RGA seedlings sprayed with GA3. Format: in vivo, Arabidopsis. The settings on record: seedlings sprayed with GA3 (10 μM), harvested at different time points. The procedure: FIGS. 7A-D. RGA and GAI are SUMOylated in vivo. a, Immunoprecipitation of GFP proteins from 35S::GFP or 35S::GFP:NPR1 (NON EXPRESSER OF PR GENES) young seedlings sprayed with 1 mM Salicylic acid (+SA) or control (−SA). Numbers indicate molecular mass (kDa), arrowhead, the GFP:NPR1 or GFP proteins. Ponceau staining of the Rubisco large subunit serves as a loading control. b, in vitro deSUMOylation of plant-derived GFP:RGA by recombinant SUMO protease subunits of SENP1 and SENP2. c, immunoprecipitation of equal amount of total proteins derived from pRGA::GFP:RGA seedlings or a transgenic line (Col-0) expressing GAI:GFP (35S::GAI:GFP). 9 days old seedlings were grown in petri dishes in the absence (−) or presence (+) of PAC (0.1 μM). […]
Total proteins were extracted by homogenizing fresh Arabidopsis seedlings in the presence of ice cold extraction buffer—150 mM NaCl, 1% Igepal CA-630, 0.5% sodium deoxycholate, 0.1% SDS, 1 mM EDTA, 50 mM Tris HCl, pH 8.0 and freshly added protease inhibitor cocktail (Roche) and 10 mM N-ethylmaleimide (NEM). The homogenates were clarified by spinning 10 min at 4° C. at 13000×g and the supernatant quantified with the Bradford assay. […] Total proteins were quantified with the Bradford reagent and an equal amount of proteins was precipitated with five volumes of cold acetone. […]

The next test concerns the target T1, SUMOylated GFP:RGA (Arabidopsis thaliana, UniProt Q9SLH3).
T1 construct: expressed in transfected cells; host or cells: pRGA::GFP:RGA transgenic Arabidopsis plants (Ler background)
Nature of the test: On-column deSUMOylation assay of plant-derived GFP:RGA. Type of test: biochemical. The note with it: 5-10 μg recombinant protease, typically 1-2 hours at room temperature. The source says: FIGS. 2A-G. SUMOylation is a novel DELLA modification affecting DELLA accumulation. a, Immunoprecipitation of GFP:RGA proteins. […] His:RGAK65R is not SUMOylated. […] In bold characters, the conserved lysine residues, shaded area, the non-canonical SUMOylation motif. Alignment discloses SEQ ID NOS 41, 76-77, 42, and 78-82, respectively, in order of appearance. e, SUMOylated GFP:RGA accumulation upon NaCl treatment. f, SUMOylated GFP:RGA accumulation in wild-type (OTS1 OTS2) or mutants (ots1 ots2) plants. g, accumulation of GFP:RGA at different concentrations of NaCl. Wild-type extracts (Col-0) were used as a negative control.
GFP:RGA proteins were affinity captured from total proteins extracts of pRGA::GFP:RGA transgenic plants with the μMACS GFP Isolation Kit. Magnetic beads were eluted from the columns with 50 μl of 20 mM Tris HCl, pH 7.5 and split into different tubes. Purified GFP:RGA proteins were incubated with 5-10 μg of recombinant OTS1 or OTS1C526S, or 300 ng of GST tagged human SENP1 or SENP (42) (catalytic domain) (Enzo life sciences). After incubation (typically 1-2 hours at room temperature), the beads were applied to the column, washed and bound proteins eluted with SDSPAGE loading buffer.

In test [1] the target is T2, His:proAtSUMO1 (Arabidopsis, UniProt P55852 1-100).
T2 construct: Probe of the far-western assay on spotted SIM peptides (10 ug/ml); also called recombinant His:proAtSUMO1; not shown: His tag
Put plainly: far-western on spotted peptides. How it is done: (§1) Peptides corresponding to the putative SIMs in GID1 were purchased from Cambridge Research Biochemicals. 1 μg of each peptide was spotted on a PVDF membrane. Membranes were washed in 100% Ethanol, equilibrated in TBST (25 mM Tris HCl, pH 8.0, 150 mM NaCl, 0.05% Tween 20) and blocked in TBST-Milk 5%. Peptides were probed overnight at 4° C. with recombinant His:proAtSUMO1 (10 μg/ml), washed and subsequently probed with SUMO1 antibodies for standard chemoluminescence-based detection.

Test [2] deals with T2, His:proAtSUMO1. Nature of the test: peptide array probed with SUMO1 (FIG. 10a).
Test [3] deals with T3, SUMOylated GFP:RGA (plant-derived) (Arabidopsis, UniProt P55852 1-93, SUMO1 conjugated; lysine 65 of RGA is the critical amino acid for SUMO attachment).
T3 construct: the preparation is a mixture of SUMOylated and non-SUMOylated forms; also called SUMOylated RGA; SUMOylated DELLA; not shown: GFP fused N-terminally to RGA in the pRGA::GFP:RGA line
Put plainly: GST pull down of plant-derived GFP:RGA with recombinant GST:GID1a, with or without 10 µM GA3. How it is done:
GA3 was added at a final concentration of 10 μM. Proteins were pulled-down using the μMACS GST Isolation Kit, according to the manufacturers' instruction (Miltenyi biotech). […] The eluate was dialyzed against 50 mM Tris HCl, pH 7.5, 50 mM NaCl, 1 mM DTT. Plant purified GFP:RGA proteins were split into different tubes and incubated with recombinant GST:GID1a (0.1 μg) or GST proteins in 1× reaction buffer (with freshly added protease inhibitor cocktail) in the presence or absence of 10 μM GA3. GST-bound proteins were pulled-down using the μMACS GST Isolation Kit, washed four times with 1× reaction buffer and eluted according to the manufacturers' instruction.

The target of test [4] is T2, His:proAtSUMO1. Put plainly: far-western on spotted peptides SIM A and SIM B. The procedure:
as §1

T2 sequence (P55852 whole entry): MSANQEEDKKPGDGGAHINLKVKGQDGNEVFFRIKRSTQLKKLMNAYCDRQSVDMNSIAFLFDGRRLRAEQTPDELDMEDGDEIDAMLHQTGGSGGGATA
T3 sequence (chain, as listed by the source limits assumed, chain 1 of 2): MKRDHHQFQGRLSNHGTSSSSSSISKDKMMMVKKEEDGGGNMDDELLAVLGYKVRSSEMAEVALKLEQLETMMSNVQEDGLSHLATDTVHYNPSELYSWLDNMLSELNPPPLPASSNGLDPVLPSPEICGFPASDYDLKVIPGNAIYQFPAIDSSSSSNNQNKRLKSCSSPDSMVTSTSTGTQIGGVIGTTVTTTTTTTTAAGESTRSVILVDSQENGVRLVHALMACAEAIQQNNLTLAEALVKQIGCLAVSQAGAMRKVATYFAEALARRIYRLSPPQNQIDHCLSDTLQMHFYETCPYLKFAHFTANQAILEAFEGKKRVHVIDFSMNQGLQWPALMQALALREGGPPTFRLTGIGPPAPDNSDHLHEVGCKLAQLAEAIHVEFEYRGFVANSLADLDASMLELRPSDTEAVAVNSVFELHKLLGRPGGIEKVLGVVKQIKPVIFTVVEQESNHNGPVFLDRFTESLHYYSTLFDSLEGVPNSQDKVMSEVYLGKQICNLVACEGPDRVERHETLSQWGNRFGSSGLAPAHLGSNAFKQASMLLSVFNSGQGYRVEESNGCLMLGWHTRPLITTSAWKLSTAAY
T3 sequence (P55852 1-93 limits assumed, chain 2 of 2): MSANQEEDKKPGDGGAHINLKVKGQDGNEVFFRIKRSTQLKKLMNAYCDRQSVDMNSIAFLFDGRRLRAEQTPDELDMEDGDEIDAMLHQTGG
T1 sequence (Q9SLH3 whole entry): as the sequence (chain, as listed by the source limits assumed, chain 1 of 2) above
T1 sequence (P55852 1-93 partner limits assumed): as the sequence (P55852 1-93 limits assumed, chain 2 of 2) above

`C=C1C[C@]23C[C@@]1(O)CC[C@H]2[C@@]12C=C[C@H](O)[C@@](C)(C(=O)O1)[C@H]2[C@@H]3C(=O)O` [GA, gibberellic acid]: the “abundance of SUMOylated and non-SUMOylated RGA after GA treatment” value in the test on GFP:RGA is “induced a rapid disappearance of both SUMOylated and non-SUMOylated RGA forms”.

B1: OTS1: purified recombinant OTS1 SUMO protease (protein)
chain: MTKRKKEVIDVDCSEKKDFVIDWSSAMDKEDEVPELEIVNTTKPTPPPPPTFFSDDQTDSPKLLTDRDLDEQLERKKAILTLGPGLPDKGEKIRLKIADLEEEKQRRVLEGSKMEVDRSSKVVSSTSSGSDVLPQGNAVSKDTSRGNADSKDTSRQGNADSKEVSRSTFSAVFSKPKTDSQSKKAFGKELEDLGCERRKHKAGRKPVTRLSNGWRLLPDVGKAEHSAKQFDSGLKESKGNKKSKEPYGKKRPMESSTYSLIDDDDDDDDDDDNDTSGHETPREWSWEKSPSQSSRRRKKSEDTVINVDEEEAQPSTVAEQAAELPEGLQEDICYPTRDDPHFVQVCLKDLECLAPREYLTSPVMNFYMRFLQQQISSSNQISADCHFFNTYFYKKLSDAVTYKGNDKDAFFVRFRRWWKGIDLFRKAYIFIPIHEDLHWSLVIVCIPDKKDESGLTILHLDSLGLHSRKSIVENVKRFLKDEWNYLNQDDYSLDLPISEKVWKNLPRRISEAVVQVPQQKNDFDCGPFVLFFIKRFIEEAPQRLKRKDLGMFDKKWFRPDEASALRIKIRNTLIELFRVSDQTE
modifications: left off: small tags and cut ends
notes: purified recombinant OTS1 SUMO protease
In the case of B1, the “deSUMOylation of SUMOylated GFP:RGA” value in the test with SUMOylated GFP:RGA is “dramatic reduction of the higher molecular weight, anti-SUMO1 cross-reacting bands”.
Take VVPLNTWVLISN (Synthetic peptide, 1 ug spotted on PVDF) [SIM B peptide of GID1a]: the binding result with His:proAtSUMO1 [1] is “binds”.
VVPLNTWVLISNF (also called AtGID1a SIM) [SIM “B” peptide of AtGID1a (peptide array of FIG. 10)]: the binding result with His:proAtSUMO1 [2] is “binds”.

B2: GST:GID1a (receptor)
chain: MAASDEVNLIESRTVVPLNTWVLISNFKVAYNILRRPDGTFNRHLAEYLDRKVTANANPVDGVFSFDVLIDRRINLLSRVYRPAYADQEQPPSILDLEKPVDGDIVPVILFFHGGSFAHSSANSAIYDTLCRRLVGLCKCVVVSVNYRRAPENPYPCAYDDGWIALNWVNSRSWLKSKKDSKVHIFLAGDSSGGNIAHNVALRAGESGIDVLGNILLNPMFGGNERTESEKSLDGKYFVTVRDRDWYWKAFLPEGEDREHPACNPFSPRGKSLEGVSFPKSLVVVAGLDLIRDWQLAYAEGLKKAGQEVKLMHLEKATVGFYLLPNNNHFHNVMDEISAFVNAEC
notes: GID1a ORF (pLCG66) recombined into pDEST15; also called recombinant GST-tagged GID1a; GST-tagged GID1a; not shown: glutathione S-transferase (GST) tag of the GATEWAY destination vector pDEST15
B2: in test [3], the binding result is recorded as “binds”.

B3: SIM A peptide of GID1a (peptide)
peptide: LIESRTVVPLNTW
notes: Synthetic peptide (Cambridge Research Biochemicals), 1 ug spotted on PVDF
On to B3, for which the binding result in the test with His:proAtSUMO1 [4] was “no binding”.

For the origin of these results see patent US20150353950A1, “TRANSGENIC PLANTS” (Durham University, priority 2012, published 2015).
